Among the data in patent US20260070987A1 are Kd values, retold here.

B1: equine IgG1 M428C (antibody, part only; not given: variable domains, not shown: another chain or arm of the molecule)
constant: ASTTAPKVFALAPGCGTTSDSTVALGCLVSGYFPEPVKVSWNSGSLTSGVHTFPSVLQSSGFYSLSSMVTVPASTWTSETYICNVVHAASNFKVDKRIEPIPDNHQKVCDMSKCPKCPAPELLGGPSVFIFPPNPKDTLMITRTPEVTCVVVDVSQENPDVKFNWYMDGVEVRTATTRPKEEQFNSTYRVVSVLRIQHQDWLSGKEFKCKVNNQALPQPIERTITKTKGRSQEPQVYVLAPHPDELSKSKVSVTCLVKDFYPPEINIEWQSNGQPELETKYSTTQAQQDSDGSYFLYSKLSVDRNRWQQGTTFTCGVCHEALHNHYTQKNVSKNPGK
B2: equine IgG1 M428Y (antibody, part only; not given: variable domains, not shown: another chain or arm of the molecule)
constant: ASTTAPKVFALAPGCGTTSDSTVALGCLVSGYFPEPVKVSWNSGSLTSGVHTFPSVLQSSGFYSLSSMVTVPASTWTSETYICNVVHAASNFKVDKRIEPIPDNHQKVCDMSKCPKCPAPELLGGPSVFIFPPNPKDTLMITRTPEVTCVVVDVSQENPDVKFNWYMDGVEVRTATTRPKEEQFNSTYRVVSVLRIQHQDWLSGKEFKCKVNNQALPQPIERTITKTKGRSQEPQVYVLAPHPDELSKSKVSVTCLVKDFYPPEINIEWQSNGQPELETKYSTTQAQQDSDGSYFLYSKLSVDRNRWQQGTTFTCGVYHEALHNHYTQKNVSKNPGK
B3: equine IgG1 M428V (antibody, part only; not given: variable domains, not shown: another chain or arm of the molecule)
constant: ASTTAPKVFALAPGCGTTSDSTVALGCLVSGYFPEPVKVSWNSGSLTSGVHTFPSVLQSSGFYSLSSMVTVPASTWTSETYICNVVHAASNFKVDKRIEPIPDNHQKVCDMSKCPKCPAPELLGGPSVFIFPPNPKDTLMITRTPEVTCVVVDVSQENPDVKFNWYMDGVEVRTATTRPKEEQFNSTYRVVSVLRIQHQDWLSGKEFKCKVNNQALPQPIERTITKTKGRSQEPQVYVLAPHPDELSKSKVSVTCLVKDFYPPEINIEWQSNGQPELETKYSTTQAQQDSDGSYFLYSKLSVDRNRWQQGTTFTCGVVHEALHNHYTQKNVSKNPGK
B4: equine IgG1 M428I (antibody, part only; not given: variable domains, not shown: another chain or arm of the molecule)
constant: ASTTAPKVFALAPGCGTTSDSTVALGCLVSGYFPEPVKVSWNSGSLTSGVHTFPSVLQSSGFYSLSSMVTVPASTWTSETYICNVVHAASNFKVDKRIEPIPDNHQKVCDMSKCPKCPAPELLGGPSVFIFPPNPKDTLMITRTPEVTCVVVDVSQENPDVKFNWYMDGVEVRTATTRPKEEQFNSTYRVVSVLRIQHQDWLSGKEFKCKVNNQALPQPIERTITKTKGRSQEPQVYVLAPHPDELSKSKVSVTCLVKDFYPPEINIEWQSNGQPELETKYSTTQAQQDSDGSYFLYSKLSVDRNRWQQGTTFTCGVIHEALHNHYTQKNVSKNPGK
B5: equine IgG1 M428L (antibody, part only; not given: variable domains, not shown: another chain or arm of the molecule)
constant: ASTTAPKVFALAPGCGTTSDSTVALGCLVSGYFPEPVKVSWNSGSLTSGVHTFPSVLQSSGFYSLSSMVTVPASTWTSETYICNVVHAASNFKVDKRIEPIPDNHQKVCDMSKCPKCPAPELLGGPSVFIFPPNPKDTLMITRTPEVTCVVVDVSQENPDVKFNWYMDGVEVRTATTRPKEEQFNSTYRVVSVLRIQHQDWLSGKEFKCKVNNQALPQPIERTITKTKGRSQEPQVYVLAPHPDELSKSKVSVTCLVKDFYPPEINIEWQSNGQPELETKYSTTQAQQDSDGSYFLYSKLSVDRNRWQQGTTFTCGVLHEALHNHYTQKNVSKNPGK
B6: equine IgG1 M428Q (antibody, part only; not given: Variable domains, not shown: another chain or arm of the molecule)
constant: ASTTAPKVFALAPGCGTTSDSTVALGCLVSGYFPEPVKVSWNSGSLTSGVHTFPSVLQSSGFYSLSSMVTVPASTWTSETYICNVVHAASNFKVDKRIEPIPDNHQKVCDMSKCPKCPAPELLGGPSVFIFPPNPKDTLMITRTPEVTCVVVDVSQENPDVKFNWYMDGVEVRTATTRPKEEQFNSTYRVVSVLRIQHQDWLSGKEFKCKVNNQALPQPIERTITKTKGRSQEPQVYVLAPHPDELSKSKVSVTCLVKDFYPPEINIEWQSNGQPELETKYSTTQAQQDSDGSYFLYSKLSVDRNRWQQGTTFTCGVQHEALHNHYTQKNVSKNPGK
B7: equine IgG1 M428K (antibody, part only; not given: variable domains, not shown: another chain or arm of the molecule)
constant: ASTTAPKVFALAPGCGTTSDSTVALGCLVSGYFPEPVKVSWNSGSLTSGVHTFPSVLQSSGFYSLSSMVTVPASTWTSETYICNVVHAASNFKVDKRIEPIPDNHQKVCDMSKCPKCPAPELLGGPSVFIFPPNPKDTLMITRTPEVTCVVVDVSQENPDVKFNWYMDGVEVRTATTRPKEEQFNSTYRVVSVLRIQHQDWLSGKEFKCKVNNQALPQPIERTITKTKGRSQEPQVYVLAPHPDELSKSKVSVTCLVKDFYPPEINIEWQSNGQPELETKYSTTQAQQDSDGSYFLYSKLSVDRNRWQQGTTFTCGVKHEALHNHYTQKNVSKNPGK
B8: equine IgG1 M428F (antibody, part only; not given: variable domains, not shown: another chain or arm of the molecule)
constant: ASTTAPKVFALAPGCGTTSDSTVALGCLVSGYFPEPVKVSWNSGSLTSGVHTFPSVLQSSGFYSLSSMVTVPASTWTSETYICNVVHAASNFKVDKRIEPIPDNHQKVCDMSKCPKCPAPELLGGPSVFIFPPNPKDTLMITRTPEVTCVVVDVSQENPDVKFNWYMDGVEVRTATTRPKEEQFNSTYRVVSVLRIQHQDWLSGKEFKCKVNNQALPQPIERTITKTKGRSQEPQVYVLAPHPDELSKSKVSVTCLVKDFYPPEINIEWQSNGQPELETKYSTTQAQQDSDGSYFLYSKLSVDRNRWQQGTTFTCGVFHEALHNHYTQKNVSKNPGK
B9: equine IgG1 M428E (antibody, part only; not given: variable domains, not shown: another chain or arm of the molecule)
constant: ASTTAPKVFALAPGCGTTSDSTVALGCLVSGYFPEPVKVSWNSGSLTSGVHTFPSVLQSSGFYSLSSMVTVPASTWTSETYICNVVHAASNFKVDKRIEPIPDNHQKVCDMSKCPKCPAPELLGGPSVFIFPPNPKDTLMITRTPEVTCVVVDVSQENPDVKFNWYMDGVEVRTATTRPKEEQFNSTYRVVSVLRIQHQDWLSGKEFKCKVNNQALPQPIERTITKTKGRSQEPQVYVLAPHPDELSKSKVSVTCLVKDFYPPEINIEWQSNGQPELETKYSTTQAQQDSDGSYFLYSKLSVDRNRWQQGTTFTCGVEHEALHNHYTQKNVSKNPGK
B10: equine IgG1 T286C (antibody, part only; not given: variable domains, not shown: another chain or arm of the molecule)
constant: ASTTAPKVFALAPGCGTTSDSTVALGCLVSGYFPEPVKVSWNSGSLTSGVHTFPSVLQSSGFYSLSSMVTVPASTWTSETYICNVVHAASNFKVDKRIEPIPDNHQKVCDMSKCPKCPAPELLGGPSVFIFPPNPKDTLMITRTPEVTCVVVDVSQENPDVKFNWYMDGVEVRCATTRPKEEQFNSTYRVVSVLRIQHQDWLSGKEFKCKVNNQALPQPIERTITKTKGRSQEPQVYVLAPHPDELSKSKVSVTCLVKDFYPPEINIEWQSNGQPELETKYSTTQAQQDSDGSYFLYSKLSVDRNRWQQGTTFTCGVMHEALHNHYTQKNVSKNPGK
B11: equine IgG1 M428H (antibody, part only; not given: variable domains, not shown: another chain or arm of the molecule)
constant: ASTTAPKVFALAPGCGTTSDSTVALGCLVSGYFPEPVKVSWNSGSLTSGVHTFPSVLQSSGFYSLSSMVTVPASTWTSETYICNVVHAASNFKVDKRIEPIPDNHQKVCDMSKCPKCPAPELLGGPSVFIFPPNPKDTLMITRTPEVTCVVVDVSQENPDVKFNWYMDGVEVRTATTRPKEEQFNSTYRVVSVLRIQHQDWLSGKEFKCKVNNQALPQPIERTITKTKGRSQEPQVYVLAPHPDELSKSKVSVTCLVKDFYPPEINIEWQSNGQPELETKYSTTQAQQDSDGSYFLYSKLSVDRNRWQQGTTFTCGVHHEALHNHYTQKNVSKNPGK
B12: equine IgG1 N434A (antibody, part only; not given: Variable domains, not shown: another chain or arm of the molecule)
constant: ASTTAPKVFALAPGCGTTSDSTVALGCLVSGYFPEPVKVSWNSGSLTSGVHTFPSVLQSSGFYSLSSMVTVPASTWTSETYICNVVHAASNFKVDKRIEPIPDNHQKVCDMSKCPKCPAPELLGGPSVFIFPPNPKDTLMITRTPEVTCVVVDVSQENPDVKFNWYMDGVEVRTATTRPKEEQFNSTYRVVSVLRIQHQDWLSGKEFKCKVNNQALPQPIERTITKTKGRSQEPQVYVLAPHPDELSKSKVSVTCLVKDFYPPEINIEWQSNGQPELETKYSTTQAQQDSDGSYFLYSKLSVDRNRWQQGTTFTCGVMHEALHAHYTQKNVSKNPGK
B13: equine IgG1 M428N (antibody, part only; not given: Variable domains, not shown: another chain or arm of the molecule)
constant: ASTTAPKVFALAPGCGTTSDSTVALGCLVSGYFPEPVKVSWNSGSLTSGVHTFPSVLQSSGFYSLSSMVTVPASTWTSETYICNVVHAASNFKVDKRIEPIPDNHQKVCDMSKCPKCPAPELLGGPSVFIFPPNPKDTLMITRTPEVTCVVVDVSQENPDVKFNWYMDGVEVRTATTRPKEEQFNSTYRVVSVLRIQHQDWLSGKEFKCKVNNQALPQPIERTITKTKGRSQEPQVYVLAPHPDELSKSKVSVTCLVKDFYPPEINIEWQSNGQPELETKYSTTQAQQDSDGSYFLYSKLSVDRNRWQQGTTFTCGVNHEALHNHYTQKNVSKNPGK
B14: equine IgG1 M428G (antibody, part only; not given: variable domains, not shown: another chain or arm of the molecule)
constant: ASTTAPKVFALAPGCGTTSDSTVALGCLVSGYFPEPVKVSWNSGSLTSGVHTFPSVLQSSGFYSLSSMVTVPASTWTSETYICNVVHAASNFKVDKRIEPIPDNHQKVCDMSKCPKCPAPELLGGPSVFIFPPNPKDTLMITRTPEVTCVVVDVSQENPDVKFNWYMDGVEVRTATTRPKEEQFNSTYRVVSVLRIQHQDWLSGKEFKCKVNNQALPQPIERTITKTKGRSQEPQVYVLAPHPDELSKSKVSVTCLVKDFYPPEINIEWQSNGQPELETKYSTTQAQQDSDGSYFLYSKLSVDRNRWQQGTTFTCGVGHEALHNHYTQKNVSKNPGK
B15: equine IgG1 M428W (antibody, part only; not given: variable domains, not shown: another chain or arm of the molecule)
constant: ASTTAPKVFALAPGCGTTSDSTVALGCLVSGYFPEPVKVSWNSGSLTSGVHTFPSVLQSSGFYSLSSMVTVPASTWTSETYICNVVHAASNFKVDKRIEPIPDNHQKVCDMSKCPKCPAPELLGGPSVFIFPPNPKDTLMITRTPEVTCVVVDVSQENPDVKFNWYMDGVEVRTATTRPKEEQFNSTYRVVSVLRIQHQDWLSGKEFKCKVNNQALPQPIERTITKTKGRSQEPQVYVLAPHPDELSKSKVSVTCLVKDFYPPEINIEWQSNGQPELETKYSTTQAQQDSDGSYFLYSKLSVDRNRWQQGTTFTCGVWHEALHNHYTQKNVSKNPGK
B16: equine IgG1 M428T (antibody, part only; not given: variable domains, not shown: another chain or arm of the molecule)
constant: ASTTAPKVFALAPGCGTTSDSTVALGCLVSGYFPEPVKVSWNSGSLTSGVHTFPSVLQSSGFYSLSSMVTVPASTWTSETYICNVVHAASNFKVDKRIEPIPDNHQKVCDMSKCPKCPAPELLGGPSVFIFPPNPKDTLMITRTPEVTCVVVDVSQENPDVKFNWYMDGVEVRTATTRPKEEQFNSTYRVVSVLRIQHQDWLSGKEFKCKVNNQALPQPIERTITKTKGRSQEPQVYVLAPHPDELSKSKVSVTCLVKDFYPPEINIEWQSNGQPELETKYSTTQAQQDSDGSYFLYSKLSVDRNRWQQGTTFTCGVTHEALHNHYTQKNVSKNPGK

The Kd is a measure of binding affinity in units of concentration. A high value points to a looser complex.

The target in this experiment is equine FcRn (large alpha subunit p51) / equine beta-2-microglobulin complex, biotinylated (equine) (UniProt P30441). The experiment can be described thus: SPR (Biacore), pH 6. For orientation: SPR reads the build-up and loss of mass on a sensor chip optically.
Sequence of UniProt P30441 (P30441 21-118, one chain of several): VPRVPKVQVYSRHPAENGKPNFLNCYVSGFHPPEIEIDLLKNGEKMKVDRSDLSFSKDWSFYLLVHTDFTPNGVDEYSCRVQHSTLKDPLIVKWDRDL
Molecule B1 had a Kd of 47.5 nM. In turn, B2 showed a Kd of 17 nM.

Molecule B3 displayed a Kd of 65.8 nM.

In turn, B4 came in with a Kd of 28 nM. B5: the Kd came out at 8.76 nM. For B6, the Kd is 32.9 nM. The molecule B7 returned a Kd of 28.7 nM. With B8, the Kd came to 17.3 nM.

With B9, the Kd turned out to be 43.9 nM.

For B10, the Kd was 35.4 nM. For the molecule B11, the Kd amounted to 33.1 nM. Consider B12, for which the Kd is 6.54 nM. The molecule B13 showed a Kd of 51.6 nM.

Molecule B14 came in with a Kd of 48.8 nM.

For B15, the Kd came out at 31.9 nM. B16 registered a Kd of 34.8 nM.
